# Source: patent US20250092426, “CAS ENDONUCLEASES AND RELATED METHODS” (Flagship Pioneering Innovations VII, LLC, published 2025)
# T1: CasEnd-22 (synthetic construct)
# T1 chain: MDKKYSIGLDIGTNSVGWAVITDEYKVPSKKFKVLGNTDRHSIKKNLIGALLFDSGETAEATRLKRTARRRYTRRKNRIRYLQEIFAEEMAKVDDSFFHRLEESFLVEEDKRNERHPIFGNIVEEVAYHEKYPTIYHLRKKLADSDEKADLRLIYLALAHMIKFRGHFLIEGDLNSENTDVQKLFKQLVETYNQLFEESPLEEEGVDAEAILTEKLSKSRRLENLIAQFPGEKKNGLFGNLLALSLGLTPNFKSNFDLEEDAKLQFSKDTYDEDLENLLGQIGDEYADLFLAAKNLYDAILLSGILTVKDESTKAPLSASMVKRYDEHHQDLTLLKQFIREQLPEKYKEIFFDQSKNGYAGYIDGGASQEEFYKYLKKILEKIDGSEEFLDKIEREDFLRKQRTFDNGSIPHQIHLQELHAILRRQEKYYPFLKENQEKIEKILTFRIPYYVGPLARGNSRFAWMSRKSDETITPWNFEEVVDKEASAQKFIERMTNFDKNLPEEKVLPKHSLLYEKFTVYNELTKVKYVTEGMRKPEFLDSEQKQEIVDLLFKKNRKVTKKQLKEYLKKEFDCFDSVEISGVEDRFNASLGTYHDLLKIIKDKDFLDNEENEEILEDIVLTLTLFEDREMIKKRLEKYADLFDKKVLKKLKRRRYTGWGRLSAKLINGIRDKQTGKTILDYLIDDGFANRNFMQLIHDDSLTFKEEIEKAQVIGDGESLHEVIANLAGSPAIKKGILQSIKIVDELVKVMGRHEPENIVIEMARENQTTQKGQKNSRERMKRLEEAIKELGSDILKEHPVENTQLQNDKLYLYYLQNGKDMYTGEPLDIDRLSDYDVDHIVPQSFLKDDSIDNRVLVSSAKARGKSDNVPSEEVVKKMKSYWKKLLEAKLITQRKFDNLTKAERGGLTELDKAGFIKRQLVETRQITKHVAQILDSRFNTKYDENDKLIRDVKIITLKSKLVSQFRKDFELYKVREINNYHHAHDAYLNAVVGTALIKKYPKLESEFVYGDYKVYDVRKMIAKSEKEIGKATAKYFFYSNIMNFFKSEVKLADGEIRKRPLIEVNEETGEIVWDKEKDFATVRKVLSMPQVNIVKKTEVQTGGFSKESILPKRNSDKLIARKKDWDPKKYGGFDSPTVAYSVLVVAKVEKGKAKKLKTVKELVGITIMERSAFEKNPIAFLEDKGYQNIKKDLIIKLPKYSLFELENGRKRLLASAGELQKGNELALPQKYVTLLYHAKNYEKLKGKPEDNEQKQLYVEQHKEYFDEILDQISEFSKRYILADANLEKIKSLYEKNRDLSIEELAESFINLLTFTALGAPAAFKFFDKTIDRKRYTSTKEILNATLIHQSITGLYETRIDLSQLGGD
# Target: T1, CasEnd-22
# Assay: cell_activity; +++; HEK293T; PAM not stated
# Summary of the method: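 BFP-to-GFP conversion via reverse transcriptase fusion with each Cas endonuclease plus template RNA: 200 ng of each plasmid nucleofected into 250,000 BFP-expressing HEK293T cells (program DS-150). Percent GFP+ cells by flow cytometry at day 4 measured editing.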
binder,measurement,value
BFP-to-GFP template RNA ; BFP reporter protospacer (ssRNA ; dsDNA) RNA: GCCGAAGCACUGCACGCCGUGUUUUAGAGCUAGAAAUAGCAAGUUAAAAUAAGGCUAGUCCGUUAUCAACUUGAAAAAGUGGCACCGAGUCGGUGCACCCUGACGUACGGCGUGCAGUGCUU DNA 1: GCCGAAGCACTGCACGCCGT DNA 2: ACGGCGTGCAGTGCTTCGGC,activity,≥ 100 % of reference
